Assay results published in article PMC3292765 (2012).

Molecular target: Rac1 (Homo sapiens, UniProt P63000)
Experiment: microscale thermophoresis

Kd: ~40 nM
B1: p67phox 1-212 (protein)
chain: MSLVEAISLWNEGVLAADKKDWKGALDAFSAVQDPHSRICFNIGCMYTILKNMTEAEKAFTRSINRDKHLAVAYFQRGMLYYQTEKYDLAIKDLKEALIQLRGNQLIDYKILGLQFKLFACEVLYNIAFMYAKKEEWKKAEEQLALATSMKSEPRHSKIDKAMECVWKQKLYEPVVIPVGKLFRPNERQVAQLAKKDYLGKATVVASVVDQD
